Source: patent publication US20110300156A1 (Genmab, published 2011)
Each block holds one binder with its values, some of them ahead of it.

Experiments:
[1] = target: T1, human tissue factor (TF), membrane-bound on cells (human, UniProt P13726 33-295); experiment: FACS, A431 cells
T1 construct: whole, on cells; also called cellular TF
Protocol: (§1) Cells were resuspended in PBS (2×10⁶ cells/ml), put in 96-well V-bottom plates (50 μl/well). 50 μl of serially diluted HuMab in FACS buffer (PBS supplemented with 0.1% BSA and 0.02% Na-azide) was added to the cells and incubated for 30 minutes on ice. After washing three times with FACS buffer, 50 μl of phycoerythrin (PE)-conjugated goat anti-human IgGFc (Jackson ImmunoResearch), diluted 1:100 in FACS buffer, was added. After 30 minutes on ice (in the dark), cells were washed three times, and specific binding of the HuMabs was detected by flow cytometry on a FACSCalibur (BD Biosciences). HuMab-KLH was used as a negative control. Mouse anti-TF followed by PE-conjugated anti-mouse IgGFc was used as positive control. Binding curves were analyzed using non-linear regression (sigmoidal dose-response with variable slope) using GraphPad Prism V4.03 software (GraphPad Software, San Diego, Calif., USA).

[2] = target: T1, human tissue factor (TF), …; experiment: FACS, Bx-PC3 cells
Protocol: as §1

[3] = target: T1, human tissue factor (TF), …; experiment: FACS, MDA-MB-231 cells
Protocol: as §1

[4] = target: T1, human tissue factor (TF), …; experiment: cell-based or functional assay
[5] = target: T1, human tissue factor (TF), …; experiment: cell-based or functional assay; remark: listed apart in the source
TF (Innovin) [6] = target: T2, TF (Innovin) (UniProt P13726 33-295, limits assumed); experiment: cell-based or functional assay
TF (Innovin) [7] = target: T2, TF (Innovin); experiment: cell-based or functional assay; remark: listed apart in the source
[8] = target: T1, human tissue factor (TF), …; experiment: cell-based or functional assay; remark: listed apart in the source
[9] = target: T1, human tissue factor (TF), …; experiment: FACS, A431 cells, 30 µg/mL
Protocol: as §1

[10] = target: T1, human tissue factor (TF), …; experiment: FACS, Bx-PC3 cells, 30 µg/mL
Protocol: as §1

[11] = target: T1, human tissue factor (TF), …; experiment: FACS, MDA-MB-231 cells, 30 µg/mL
Protocol: as §1

[12] = target: T3, TFECDHis (extracellular domain of tissue factor, amino acid 1-251, with C-terminal His tag) (human, UniProt P13726 33-251); experiment: ELISA, coated TFECDHis, mean of 3
T3 construct: range 1-251; The stated range 1-251 starts at residue 1 of NP-001984; also called extracellular domain of TF
Protocol: The specificity of the obtained anti-TF HuMabs was evaluated by ELISA. ELISA plates (Microlon; Greiner Bio-One) were coated overnight at +4° C. with 0.5 μg/mL of TFECDHis in PBS, pH 7.4. Coated ELISA plates were emptied and blocked for one hour at room temperature with 2% (v/v) chicken serum (Gibco, Paisley, Scotland) in PBS and washed with PBS containing 0.05% Tween 20 (PBST). Subsequently, HuMabs, serially diluted in PBSTC (PBS supplemented with 2% (v/v) chicken serum and 0.05% (v/v) Tween-20), were incubated for 1 hr at RT under shaking conditions (300 rpm). Bound HuMabs were detected using HRP-conjugated goat-anti-human IgG antibodies (Jackson ImmunoResearch) diluted 1:5,000 in PBSTC, which were incubated for 1 hr at RT under shaking conditions (300 rpm). […] HuMab-KLH (a human monoclonal antibody against KLH (keyhole limpet haemocyanin)), was used as a negative control. Mouse anti-human TF (ERL) was used as positive control (HRP labeled anti-mouse IgG as conjugate). Binding curves were analyzed using non-linear regression (sigmoidal dose-response with variable slope) using GraphPad Prism V4.03 software.

[13] = target: T1, human tissue factor (TF), …; experiment: FACS, TF transfected CHO cells (S1015-TF)
Protocol: as §1

[14] = target: T1, human tissue factor (TF), …; experiment: FACS, TF transfected CHO cells (S1015-TF), 7.5 µg/mL
Protocol: as §1

[15] = target: T3, TFECDHis (extracellular domain of …); experiment: SPR BIAcore 3000, HuMab immobilized, TFECDHis analyte
Protocol: Antibody binding to TF was analyzed by surface plasmon resonance in a BIAcore 3000 (GE Healthcare). TFECDHis was used for the analysis. HuMab antibodies (500 resonance units) were immobilized on the CM-5 sensor chip according to the procedure recommended by the manufacturer. Briefly, after surface activation by EDC and NHS HuMab antibody was injected over the activated CM-5 surface in 10 mM sodium-acetate, pH ranging from 4.0 to 5.5 at 5 μl/min. followed by 1 M Ethanolamine for deactivation. Concentration series of TFECDHis in HBS-EP buffer were injected over the immobilized antibodies at a flow rate of 30 μl/min for 180 sec. Regeneration of the HuMab surface was performed by injection of 10 mM Glycine-HCl pH 2.0 or 10 mM sodium acetate pH 3.0. Kinetic analysis was performed using double reference subtraction and model 1:1 (langmuir) binding analysis.

[16] = target: T3, TFECDHis (extracellular domain of …); experiment: competition ELISA, inhibition of FVIIa (100 nM) binding to coated TFECDHis
Protocol: ELISA plates were coated overnight with TFECDHis (0.5 μg/mL, 100 μL per well). Plates were emptied, blocked with PBS containing 2% (v/v) chicken serum (1 hour, RT), and emptied again. […] Plates were washed and incubated with swine-anti-rabbit IgG-HRP antibody (1:2,500; DAKO). After washing, the immune complexes were visualized using ABTS as a substrate.

[17] = target: T4, murine tissue factor (TF) on transfected HEK293F cells (murine, UniProt P20352 29-294); experiment: FACS on transfected HEK293F cells, 30 µg/mL antibody [panel E]
T4 construct: whole, on cells; also called murine TF; TFmm
T4 sequence (looked up): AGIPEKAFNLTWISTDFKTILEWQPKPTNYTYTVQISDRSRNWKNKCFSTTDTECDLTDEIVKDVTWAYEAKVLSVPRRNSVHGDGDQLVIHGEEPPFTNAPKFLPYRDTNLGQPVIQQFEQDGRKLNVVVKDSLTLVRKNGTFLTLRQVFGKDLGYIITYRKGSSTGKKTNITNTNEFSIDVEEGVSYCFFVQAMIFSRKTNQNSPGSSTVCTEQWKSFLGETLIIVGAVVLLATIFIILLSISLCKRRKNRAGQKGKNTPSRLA

[18] = target: T4, murine tissue factor (TF) on …; experiment: FACS on transfected HEK293F cells, 30 µg/mL antibody [panel G]
[19] = target: T4, murine tissue factor (TF) on …; experiment: FACS on transfected HEK293F cells, 30 µg/mL antibody [panel H]
[20] = target: T1, human tissue factor (TF), …; experiment: FACS on AsPC-1 cells (~175.000 TF molecules/cell) [panel AsPC-1 cells]
Protocol: as §1
(§2) Binding of anti-TF HuMabs to membrane-bound TF on cell lines expressing different levels of TF was determined by FACS analysis, essentially as described supra. Mouse anti-TF antibody followed by PE-conjugated anti-mouse IgGFc was used as a positive control. Fluorescence was measured on a FACSCantoII. Binding curves were analyzed essentially as described supra, using GraphPad Prism 5 software. The amount of TF molecules on cell lines was determined by Qifi kit (Dako, Glostrup, Denmark), according to the manufacturer's instructions.

[21] = target: T1, human tissue factor (TF), …; experiment: FACS on SK-OV-3 cells (~60.000 TF molecules/cell) [panel SK-OV-3 cells]
Protocol: as §1
as §2, with “Mouse anti-TF antibody followed by PE-conjugated anti-mouse IgGFc was used as a positive control.” left out

[22] = target: T4, murine tissue factor (TF) on …; experiment: FACS on transfected HEK293F cells, 30 µg/mL antibody [panel B]
[23] = target: T1, human tissue factor (TF), …; experiment: FACS on MDA-MB-231 cells (~900.000 TF molecules/cell) [panel MDA-MB-231 cells]
Protocol: as §1, §2

[24] = target: T3, TFECDHis (extracellular domain of …); experiment: ELISA on coated extracellular domain of TF, detection with HRP-conjugated donkey anti-human H+L

EC50 [1]: 5.19 nM | EC50 [2]: 0.88 nM | EC50 [3]: 0.69 nM | % max inhibition of FVIIa induced ERK phosphorylation (A431) [4]: 66% | IC50, inhibition of FVIIa induced ERK phosphorylation (A431) [4]: 2.16 nM | IC50, inhibition of FVIIa induced IL-8 release (MDA-MB-231) [5]: 23.1 nM | max inhibition of FVIIa induced IL-8 release (MDA-MB-231) [5]: 75.6% | % max inhibition of FXa generation (TF (Innovin) [6]): 19% | IC50, inhibition of FXa generation (TF (Innovin) [6]): 0.3 nM | IC50, inhibition of blood coagulation (TF induced clotting time) (TF (Innovin) [7]): 2.3 nM | EC50 of ADCC, A431 cells [8]: 0.16 nM | EC50 of ADCC, Bx-PC3 cells [8]: 0.15 nM | EC50 of ADCC, MDA-MB-231 cells [8]: 0.24 nM | Max MFI [9]: 3170 | Max MFI [10]: 1320 | Max MFI [11]: 2250 | EC50 [12]: 0.34 nM | EC50 [13]: 0.73 nM | Max MFI [14]: 5810 | Kd [15]: 1.97 nM | max inhibition [16]: 90% | binding result [17]: no binding (tested: 30 µg/mL)
B1: anti-TF HuMab 025 (antibody, V domains shown)
VH: QVQLVESGGGVVQPGRSLRLSCAASGFTFSRYAMHWVRQAPGKGLEWVAVISNDGYNDYYADSVKGRFTVSRDNSKNTLYLQMNSLRAEDTAVYYCARDGQLGRGYFDYWGQGTLVTVSS
VL: EIVLTQSPATLSLSPGERATLSCRASQSVSSYLAWYQQKPGQAPRLLIYDASNRATGIPARFSGSGSGTDFTLTISSLEPEDFAVYYCQQRSNWPLTFGGGTKVEIK
notes: Human monoclonal antibody from HuMab mice

binding result [18]: no binding (tested: 30 µg/mL)
B2: anti-TF HuMab 042 (antibody, V domains shown)
VH: EVQLLESGGGLVQPGGSLRLSCAASGFTFSSYGMSWVRQAPGKGLEWVSVISGSGGTTYYADSVKGRFTISRDNSKNTLYLQMNSLRAEDTAVYYCAKAPWTYYFDYWGQGTLVTVSS
VL: not shown
notes: as for B1

EC50 [1]: 1.45 nM | EC50 [2]: 1.88 nM | EC50 [3]: 0.87 nM | % max inhibition of FVIIa induced ERK phosphorylation (A431) [4]: 45% | IC50, inhibition of FVIIa induced ERK phosphorylation (A431) [4]: > 66.6 nM | IC50, inhibition of FVIIa induced IL-8 release (MDA-MB-231) [5]: 74.6 nM | max inhibition of FVIIa induced IL-8 release (MDA-MB-231) [5]: 17.2% | % max inhibition of FXa generation (TF (Innovin) [6]): 3% | EC50 of ADCC, A431 cells [8]: 0.19 nM | EC50 of ADCC, Bx-PC3 cells [8]: 0.12 nM | EC50 of ADCC, MDA-MB-231 cells [8]: 0.08 nM | Max MFI [9]: 2650 | Max MFI [10]: 1140 | Max MFI [11]: 1880 | EC50 [13]: 2.13 nM | Max MFI [14]: 5020 | IC50 [16]: 0.8 nM | max inhibition [16]: 54% | binding result [19]: no binding (tested: 30 µg/mL)
B3: anti-TF HuMab 044 (antibody, V domains shown)
VH: QVQLVESGGGVVQPGRSLRLSCAASGFTFSDYAMHWVRQAPGKGLEWVAVIPYDGDNKYYADSVKGRFTISRDNSKNTLYLQMNSLRAEDTAVYYCAREDWGLEVDYWGQGALVTVSS
VL: AIQLTQSPSSLSASVGDRVTITCRASQGINSALAWYQQKPGKAPKLLIYDASSLESGVPSRFSGSGSGTDFTLTISSLQPEDFATYYCQQFNSYPLTFGGGTKVEIK
notes: as for B1

EC50 [1]: 0.2 nM | EC50 [2]: 1.01 nM | IC50, inhibition of blood coagulation (TF induced clotting time) (TF (Innovin) [7]): 1.6 nM | Max MFI [9]: 2610 | Max MFI [10]: 1280 | Max MFI [11]: 2140 | EC50 [12]: 0.16 nM | EC50 [13]: 1.32 nM | Max MFI [14]: 5650 | Kd [15]: 3.15 nM | EC50 (read off the curve) [20]: ~0.07 µg/mL | EC50 (read off the curve) [21]: ~0.02 µg/mL | binding result [22]: no binding (tested: 30 µg/mL) | EC50 (read off the curve) [23]: ~0.03 µg/mL | EC50 (read off the curve) [24]: ~0.1 µg/mL
B4: anti-TF HuMab 011 (antibody, V domains shown)
VH: EVQLLESGGGLVQPGGSLRLSCAASGFTFSNYAMSWVRQAPGKGLEWVSSISGSGDYTYYTDSVKGRFTISRDNSKNTLYLQMNSLRAEDTAVYYCARSPWGYYLDSWGQGTLVTVSS
VL: DIQMTQSPPSLSASAGDRVTITCRASQGISSRLAWYQQKPEKAPKSLIYAASSLQSGVPSRFSGSGSGTDFTLTISSLQPEDFATYYCQQYNSYPYTFGQGTKLEIK
notes: Human monoclonal antibody from HuMab mice; also called HuMab-TF-11
